Two molecules from patent JP2024051908A (dated 2024) can be followed below.

What all share (experiment): cell-based or functional assay
Experiment [1] deals with SARS-CoV-2 オミクロンBA.2変異株のスパイクタンパク質 (authentic virus) (SARS-CoV-2 Omicron BA.2).
Experiment [2] concerns the target SARS-CoV-2 D614G変異株のスパイクタンパク質 (authentic virus) (SARS-CoV-2 D614G, UniProt P0DTC2 14-1273).
Experiment [3] concerns the target SARS-CoV-2 オミクロンBA.1変異株のスパイクタンパク質 (authentic virus) (SARS-CoV-2 Omicron BA.1).
The target of experiment [4] is SARS-CoV-2 Delta変異株のスパイクタンパク質 (authentic virus) (SARS-CoV-2 Delta).
The target of experiment [5] is SARS-CoV-2 オミクロンBA.1.1変異株のスパイクタンパク質 (authentic virus) (SARS-CoV-2 Omicron BA.1.1).
For experiment [6], the target named is SARS-CoV-2 オミクロンBA.5変異株のスパイクタンパク質 (authentic virus) (SARS-CoV-2 Omicron BA.5).

B1: MO2 (antibody, V domains shown)
VH: EVQLVESGGGLVKPGGSLSLSCVASGFTFSDYRMSWIRQAPGKGLEWVSYISSSSGYKDYADSVKGRFTISRDNAKNSLSLQMNSLRVEDTAVYYCARDVGVVTATPGYWGQGVPVSVSS
VL: DIVMTQSPATLSVSPGERATLSCRASQSVGSNLAWYQQKPGQAPRLLIYDTSTRATGVPARFSGSGSGTDFTLTISSLQSEDFAVYLCHQYDQWPPAFGPGTRVDIK
Regarding B1, the “IC50, プラーク減少中和試験 (PRNT)” value in experiment [1] came to 0.151 µg/mL; in experiment [2] it was 0.0658 µg/mL; in experiment [3], 0.0177 µg/mL; in experiment [4], 0.0882 µg/mL; in experiment [5], 0.036 µg/mL.

B2: MO1 (antibody, V domains shown)
VH: EVQLVESGGGMVQPGRSLRLSCAASGFTFDDYAMHWVRQIPGKGLEWVSGISWNSGDIGYADSVKGRFTISRDNAKNSLHLQMNSLRAEDTALYYCAKDKTYDSPGYFLNSFDYWGQGTLVTVSS
VL: DIQMTQSPSSLSASVGDRVTITCRASQGISSYLVWYQQKPGKAPKFLIYAASTLQSGVPSRFSGSGSGTDFTLTISSLQPEDFATYYCQQLYSYPITFGQGTRLEIK
B2: the “IC50, プラーク減少中和試験 (PRNT)” value is 0.0203 µg/mL in experiment [1]; 0.0236 µg/mL in experiment [2]; 0.004 µg/mL in experiment [3]; 0.0158 µg/mL in experiment [4]; 0.0157 µg/mL in experiment [6]; 0.0106 µg/mL in experiment [5].
